{"source": "paper PMC6565677", "about": "“Kistamicin biosynthesis reveals the biosynthetic requirements for production of highly crosslinked glycopeptide antibiotics” (Nature Communications, 2019)", "binders": {"B1": {"name": "Xkis-domain, standalone X-domain of the kistamicin NRPS (residues 1024-1493) (domain or fragment, UniProt A0A1V0AGC2 1024-1493, looked up)", "chain": "RPVLGPGRRADLDPDGPLPVTARQRRMWLLSRIGDEAEGLHVRVALRLRGRLDRDALAGALADVGGRHEILRTRFPGSRRDVRQEILDAETGRPPLEICPATEDELPGLLADRAGRPFDLTGEVPWRAHLFPLTDREQVLLVVAHRIAADEESVDVLVRDLAAAYGARREGRIPERAPLALQFADYALWERELLAGADERDSLIWDQIEFWRDRLAGGDDEHADTSAPPAGRARPVLPSRRAGSVPLRLPADSHARLLEAARSAGGTMFTAVHAALAMLLSRLDGRTSVTIGTRLPRDEEQTGLVPMVGPFSRWLALPVDLSGDPAFTEILGRARDVSEDAHRHQDLPFERLAELVVPVPSITRHPIFQVALQLDEDDVRPEESWALPGLRTSPVPMPEEAMELDLWLKLLDHRTDEGDADGLVGSLVYAEDRFDRAGAEALAQRLVALLEQVGAAPEVRLSQVDVPGSE", "notes": "X-domain (Oxy-recruiting domain) of the last module of the kistamicin NRPS, residues 1024-1493 of UniProt A0A1V0AGC2; Unlabelled form used for ITC and crystallisation; also called standalone Xkis domain; source: E. coli ArcticExpress, expressed as MBP fusion, purified (Ni-NTA, TEV cleavage, second Ni-NTA); not shown: His6, N-terminal, cleaved; MBP, N-terminal, cleaved"}, "B2": {"name": "OxyCkis (KisO), cytochrome P450 Oxy enzyme from kistamicin biosynthesis (enzyme, UniProt A0A1V0AGL8 1-426, looked up)", "chain": "MTDVTPGFVVDEATQVVTPEPDFIITRKHLEPTDSLRALRKRGALLKINGHALGSLDVDGTAYIWLATGYEVVRRILGDHENFSTRRRLTAGEPIDGTGVTPVKELVGHLMNLDPPEHTRLRRMLTPEFTLRRIRRLEPVISEIIEDHLNLIEDAGPPADLQSMYAEPVGGATLCELIGVPRDDRAEFLRRCGLHLDMSRGSKRRAADSMAFNGYLDHLIGLQRKRPDDGFIGMLVQEHGDDVTDDELRGMITVVLLAGLDNISGMLGLGVLALLEHPEQIPVIFEERAVTDRAVDELTRYLSITFQPTPRMALNDVVVDGQTIKAGEIVVCSLPMANRDEALTPDPDVLDLRRQLAGHVGFGHGVHHCLGSSVSRVVLRLAYQALWRRFPDLRLAVPPEDIVFRKAITHGPKRLPVTWGPSAATR", "notes": "OxyCkis (KisO), cytochrome P450 from the kistamicin gene cluster of Actinomadura parvosata subsp. kistnae; synthetic codon-optimised gene in pET28a; Heme protein; also called kistamicin OxyC; source: E. coli ArcticExpress, purified (Ni-NTA, anion exchange, size exclusion)"}, "B3": {"name": "OxyAkis (KisN), cytochrome P450 Oxy enzyme from kistamicin biosynthesis (enzyme)", "chain": "MVAPEHRVLHLRDRLDLAAELKLLCERGPLVRIPLEDGSAVHWFALGYDVVREVLGSEKFDKRVIGTHFNHQEMALPGNLLQLDPPEHTRLRRMVAPAYSVRRMQALEPRVQAIVDDHLDTMASTGPPVEFLREVAGPMAARVACEFLGIPLDDRGELIRLTAHRGGKRRRVLNGHAYLAYMRELAARLRRDPGDGMLGMVARDHGADISDEELAGLCAVVMNSSVEQTESCLAAGTLLLLEHPEQFALLRERPELGEQAVEEIVRYLSVFEGLDPRTATEDVEIGGQVIKKGEAVFCSLLAANRADPALDGFDITRKESRHVAFGHGIHHCLGAPLARMELRIAFTTLVSRFPSLRTAVPAEEIRFRPPSSNVFTLLELPLTW", "notes": "OxyAkis (KisN), cytochrome P450 from the kistamicin gene cluster of Actinomadura parvosata subsp. kistnae; synthetic codon-optimised gene in pET28a; Heme protein; also called kistamicin OxyA; source: E. coli ArcticExpress, purified (Ni-NTA, anion exchange, size exclusion)"}}, "test_in_all_cases": "ITC; 1.27 mM X-domain injected into 300-400 µM OxyA/OxyC; 25 °C, stirring 300 rpm; 50 mM phosphate pH 7.4, 150 mM NaCl, 5% v/v glycerol; single binding site model; single titration (n = 1)", "details_in_all_cases": "both partners purified", "key": {"[1]": {"molecular_target": "B2"}, "[2]": {"molecular_target": "B3"}, "[3]": {"molecular_target": "B1"}}, "data": [{"binder": "B1", "values": [{"measurement": "stoichiometry N", "setting": "[1]", "value": 1}, {"measurement": "stoichiometry N", "setting": "[2]", "value": 1}]}, {"binder": "B2", "values": [{"measurement": "Kd", "setting": "[3]", "value": 6.1, "unit": "µM"}]}, {"binder": "B3", "values": [{"measurement": "Kd", "setting": "[3]", "value": 10.4, "unit": "µM"}]}]}
